Assay results as given in patent US10975360B2, “Process for the modification of alkanes, fatty acids and fatty alcohols” (priority 2016, dated 2021).

Key:
[1] = Biotransformation of dodecanoic acid using CFE of E. coli, Tris-HCl buffer; assay type: biochemical; conditions: 5 mmol/L substrate, CFE of E. coli, Tris-HCl, 24 h
Method: (§1) Expression of genes in E. coli was performed by using ZYP-5052 auto-induction medium (Table 1) with in the case of the CYP 1 mM 5-aminolevulinic acid and 0.05 mM FeCl3 added. The CYP505E3 culture was cultivated using baffled flasks and incubated at 20° C. and 180 rpm for 24 h, while the GDH, and HLADH expressing cultures were all cultivated at 25° C. and 200 rpm for 24 h. Cultures were harvested through centrifugation (6 000×g, 10 min) and 1 g (wet weight) resuspended in 2 ml, 5 ml or 10 ml Tris-HCl, Phosphate or MOPS buffer, as indicated, (pH 8, 200 mM) containing 100 mM of glucose and glycerol. CFEs were obtained by a single passage of the suspended cells through a One Shot Cell Disrupter (Constant Systems) at 207 MPa. The soluble fraction was separated from unbroken cells by centrifugation (20 000×g, 20 min).
(§2) The biotransformation reaction mixture (BRM) consisted of CYP and GDH CFE suspensions prepared from cells in Tris-HCl buffers (1 g wet weight in 2 ml buffer) mixed in a 1:1 ratio with 0.1 mM NADPH added. Dodecanoic acid, tetradecanoic acid, hexadecanoic acid, 1-tetradecanol and 1-hexadecanol (20 μl of a 255 mM stock solution in DMSO) were added to 40 ml amber glass vials containing 1 ml BRM to give final substrate concentrations of 5 mmol·LBRM^−1. These vials were placed on an orbital shaker at 20° C., 200 rpm, oscillation amplitude 26 mm. Vials were removed after 24 h for extraction. Biotransformations were stopped by adding 170 ul of 0.5M HCl, extracted with 2×500 μl EtOAc and subjected to GC-MS analysis. A sample of δ-dodecalactone in ethyl acetate (0.1 mM) was also methylated with TMSH and subjected to GC-MS analysis.

[2] = Biotransformation of hexadecane using CFE of E. coli expressing CYP505E3; assay type: biochemical
Method: as §1
Biotransformations of dodecane, tetradecane and hexadecane were carried using only CYP505E3 containing CFE prepared from an E. coli cell suspension (1 g wet weight in 10 ml buffer) in MOPS buffer (200 mM, pH 8) containing glucose and glycerol (100 mM each) as well as 0.1 mM NADPH. Alkane substrates (250 μL) were added to 1 mL BRM in 40 ml amber glass vials. These vials were placed on an orbital shaker at 20° C., 200 rpm, oscillation amplitude 26 mm and incubated for 24 h.

[3] = Biotransformation of hexadecanoic acid using CFE of E. coli, Tris-HCl buffer; assay type: biochemical
Method: as §1, §2

[4] = assay type: biochemical
Method: To convert 1,5-dodecanediol to δ-dodecalactone 170 μL of an ethyl acetate extract containing 150 mM dodecanol and 5.5 mM 1,5-dodecanediol was placed in a 40 mL vial and the ethyl acetate evaporated by incubating the vial at 100° C. for 5 min. After evaporation of the ethyl acetate the dodecanol/dodecanediol mixture was resuspended in 1 mL of an HLADH expressing culture of E. coli permeabilized with Triton X100 (1% v/v was added and the cell suspension incubated at 37° C. for 10 min). This reaction mixture containing 1 mM of 1,5-dodecanediol and 25 mM of dodecanol was incubated at 30° C. and 180 rpm for 24 h. It was then extracted with ethyl acetate (2×0.5 mL) containing 2 mM undecanol as internal standard and analysed on a VF5 column using a GC with FID detector for quantification and a GC-MS with a Chiraldex G-TA column (30 m×0.25 mm ID) to determine enantioselectivity. The ethyl acetate extract contained 0.2 mM 1,5-dodecanediol and 0.65 mM δ-dodecalactone (R:S ratio 84:16, ee 67%) while the δ-dodecalactone produced from dodecanoic acid in previous experiments using CYP505E3 was an almost racemic mixture (R:S ratio 55:45, ee 10%) (FIG. 12).

[5] = whole cell biotransformations, E. coli; cited from earlier work
[6] = Time course of biotransformation of 50 mM C12 fatty acid using CFE of E. coli in MOPS buffer; assay type: biochemical; conditions: 50 mM dodecanoic acid, 0.2 μM CYP
Method: as §1, with “min). […]” for “min).”
After extraction aliquots (50 μl) of ethyl acetate extracts containing both decanoic acid and tetradecanol as internal standards were methylated for GC-MS analysis while the rest of the extracts were washed with a Na2CO3 (5% w/v) solution to remove the fatty acids. The washed ethyl acetate extracts were also analysed by GC-MS and the δ-dodecalactone and γ-dodecalactone concentrations determined from a standard curve.

[7] = Biotransformation of tetradecanoic acid using CFE of E. coli, Tris-HCl buffer; assay type: biochemical; conditions: 5 mmol/L substrate, CFE of E. coli, Tris-HCl, 24 h
Method: as §1, §2

[8] = Biotransformation of 1-tetradecanol using CFE of E. coli, Tris-HCl buffer; assay type: biochemical; conditions: 5 mmol/L substrate, CFE of E. coli, Tris-HCl, 24 h
Method: as §1
The biotransformation reaction mixture (BRM) consisted of CYP and GDH CFE suspensions prepared from cells in Tris-HCl buffers (1 g wet weight in 2 ml buffer) mixed in a 1:1 ratio with 0.1 mM NADPH added. Dodecanoic acid, tetradecanoic acid, hexadecanoic acid, 1-tetradecanol and 1-hexadecanol (20 μl of a 255 mM stock solution in DMSO) were added to 40 ml amber glass vials containing 1 ml BRM to give final substrate concentrations of 5 mmol·LBRM^−1. These vials were placed on an orbital shaker at 20° C., 200 rpm, oscillation amplitude 26 mm. […]

B1: CYP505E3: self-sufficient cytochrome P450 monooxygenase from Aspergillus terreus, SEQ ID No 1 (protein, listed as Aspergillus terreus)
chain: MIKETEQIPGPRPLPVVGNLFDMDLEHGLECLIRLADDFGPLFQITINGEKQIFATSQALVDELCDESRFHKAVMGGLEKLRMLASDGLFTAYHGERGWGIAHRILVPAFGPLRIRNMFEEMNDVAQQLCLKWARQGSSTSINITDDFTRLTLDTIALCTMNFRLNSFYNNETMHPFVKSMLYVLRESDIQSMLPGIANCIRVKARSRMSKHIQLMRNMARGIIQERRDQAEPVDDLLNTLLNGRDPVTGEGMSDDLIINNVITFLIAGHETTSGLLSFTFYYLLQNPHILERAQNEVDEVTGGERITVQHLGRLTYIDAILKESLRLMPTAPAFTVTPKKPEVLGGAWAIDAGQAVNVLLPVCLRDRSVFGPDADEFRPERMLEENFSKLPPNSWKPFGNGERSCIGRAFAWQEAQLVVAMVLQTFDLVPDDPSYKLRIKETLTIKPDGFRVRATLRRGQSATGLSQGSMSASGATSSVASPGPPAATGAQSNPAGGQRISFFYGSNSGTCKALAHRLASSLMGRGFTEQKLAALDTVVGNLPTDQPVIIVTTSYDGRPTDDAEEFVRWLESKRPVLQGVSYAVFGCGHHDWAKTFYRIPILIDDLMHKAGATRLTALGTANAAVSDLFSDLELWEETNLLPALREAFPPSNSSDVESSEPHQLQICVSKPRRVDMHRGLVEAKVTAVRTLTSPDSPEKRHVEFHVQGDTTWRPGDHVNILPVNPLSTVSRVLAYFQLAPDHSITVNSFNTQGLPSATPVSATELFSSFVELSQPATRKNLKALAMAAESKTDEQELIRLHDSYDALVRDKRVSVLDILERFPSISLPIGIFISMLPPLRLRTYSLSMAPSFKPSHGSLTFSVINEPAWSGNGQYLGVGSNYLASLTPGSLLYLSPRPAKDAFHLPADQFNTPIIMICAGSGLAPFMGFIQERMTWLKQGRPLAKGLLFFGCRGPHLDDLYYEELSEFEDAGVVEVHRAYSRAPDDVRAKGCRHVQHRLVTEAEAVRDHWGRNAIVYVCGSSNMARGVQTVLEEILGTLPPERYVAEIF
In the case of B1, the “products identified from dodecanoic acid (GC-MS, methylated samples)” value [1] is reported as “δ-dodecalactone and the methyl ester of 5-hydroxy dodecanoic acid”, the “ω-7 hydroxylase activity C16alk” value ([2]; C16 alkane, GC-MS peak height) is reported as “+ (+ − 0.01 million < RA < 0.1 million)” and the “product from hexadecane (GC-MS)” value ([2]; MOPS buffer, 24 h) is reported as 8-hexadecanol. The “products identified from hexadecanoic acid (GC-MS, methylated samples)” value ([3]; 5 mmol/L substrate, Tris-HCl, 24 h) was 9-hydroxy hexadecanoic acid, the “ω-7 hydroxylase activity C16FA” value ([3]; C16 fatty acid, GC-MS peak height) was “++ (++ 0.1 million < RA < 1 million)” and the “δ-dodecalactone R:S ratio” value [4] was 55:45. For the same molecule, the δ-dodecalactone ee [4] was 10%, the “activity towards alkanes and alkylbenzens” value [5] was “no detectable activity” and the “lactone concentrations in the washed ethyl acetate samples” value ([6]; Na2CO3 washed, not methylated) was 0.6 mmol·LBRM^−1. The “lactone concentrations in the unwashed samples” value ([6]; unwashed, methylated) was 1.6 mmol·LBRM^−1, the “products identified from tetradecanoic acid (GC-MS, methylated samples)” value [7] was 7-hydroxy tetradecanoic acid and the “products detected from tetradecanol (GC-MS)” value [8] was 1,7-tetradecane diol and 1,8-tetradecane diol.
